Sequences and labels used below:
B1: MLL5 (parent)
chain: EQIAERKRKMVSWEASSLGLVTAA
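Note: lentivirally expressed fusions sorted by FACS into six bins by GFP to DsRed ratio, PSI derived from sequencing read proportions per bin multiplied by bin number.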

The variants in this data set derive from B1. Put plainly: protein stability index of a GFP-peptide fusion (GPS, HEK-293T) (PSI 1-6); higher = more stable. Conditions: c terminus: a fixed tail appended.
Take EQIAERKRKMVSWEASSLGLVAAA: the protein stability index was 3.33.
For EQIAERKRKMVSWEASSLGLVEAA, the protein stability index amounted to 3.63.
To EQIAERKRKMVSWEASSLGLVHAA belongs 2.85; to EQIAERKRKMVSWEASSLGLVIAA, 1.62; to EQIAERKRKMVSWEASSLGLVKAA, 2.54.
To EQIAERKRKMVSWEASSLGLVFAA belongs 1.83; to EQIAERKRKMVSWEASSLGLVDAA, 3.63.
With EQIAERKRKMVSWEASSLGLVMAA the figure was 2.63; with EQIAERKRKMVSWEASSLGLVLAA, 2.18.
Consider EQIAERKRKMLSWEASSLGLVTAA, for which the protein stability index came out at 2.63.
Take EQIAERKRKMDSWEASSLGLVTAA: the protein stability index came to 2.81.
To EQIAERKRKMSSWEASSLGLVTAA belongs 2.99; to EQIAERKRKMTSWEASSLGLVTAA, 2.87.
With EQIAERKRKMESWEASSLGLVTAA the figure was 4.18.
For EQIAERKRKMYSWEASSLGLVTAA, the protein stability index worked out at 3.14.
As for EQIAERKRKMFSWEASSLGLVTAA, the protein stability index was determined as 2.63.
To EQIAERKRKMQSWEASSLGLVTAA belongs 3.16; to EQIAERKRKMCSWEASSLGLVTAA, 2.87.
For the variant EQIAERKRKMHSWEASSLGLVTAA, the protein stability index was 3.24.
To EQIAERKRKMMSWEASSLGLVTAA belongs 2.54; to EQIAERKRKMWSWEASSLGLVTAA, 3.34.
EQIAERKRKMPSWEASSLGLVTAA: the protein stability index worked out at 3.55.
With EQIAERKRKMGSWEASSLGLVTAA the figure was 3.39.
To EQIAERKRKMVSWEFSSLGLVTAA belongs 2.08.
To EQIAERKRKMVSWELSSLGLVTAA belongs 2.32.
On to EQIAERKRKMVSWEMSSLGLVTAA, for which the protein stability index was determined as 2.64.
Take EQIAERKRKMVSWEKSSLGLVTAA: the protein stability index was determined as 2.74.
To EQIAERKRKMVSWECSSLGLVTAA belongs 2.28; to EQIAERKRKMVSWEWSSLGLVTAA, 1.84; to EQIAERKRKMVSWEYSSLGLVTAA, 2.26.
With EQIAERKRKMVSWEQSSLGLVTAA the figure was 2.93.
With EQIAERKRKMVSWEESSLGLVTAA the figure was 3; with EQIAERKRKMVSWEISSLGLVTAA, 2.56; with EQIAERKRKMVSWERSSLGLVTAA, 3.98.
Consider EQIAERKRKMVSWEVSSLGLVTAA, for which the protein stability index worked out at 2.56.
To EQIAERKRKMVSWEHSSLGLVTAA belongs 3; to EQIAERKRKMVSWEPSSLGLVTAA, 3.77; to EQIAERKRKMVSWESSSLGLVTAA, 2.94.
To EQIAERKRKMVSWENSSLGLVTAA belongs 2.67; to EQIAERKRKMVSWEASQLGLVTAA, 3.08; to EQIAERKRKMVSWEASPLGLVTAA, 3.46.
To EQIAERKRKMVSWEASLLGLVTAA belongs 3.15.
For the variant EQIAERKRKMVSWEASVLGLVTAA, the protein stability index was 2.31.
To EQIAERKRKMVSWEASCLGLVTAA belongs 1.44; to EQIAERKRKMVSWEASNLGLVTAA, 2.71; to EQIAERKRKMVSWEASELGLVTAA, 3.41.
EQIAERKRKMVSWEASMLGLVTAA: the protein stability index was 1.54.
To EQIAERKRKMVSWEASFLGLVTAA belongs 1.37.
To EQIAERKRKMVSWEASDLGLVTAA belongs 2.98; to EQIAERKRKMVSWEASHLGLVTAA, 2.7; to EQIAERKRKMVSWEASGLGLVTAA, 3.12.
EQIAERKRKMVSWEASTLGLVTAA: the protein stability index was 2.98.
With EQIAERKRKMVSWEASYLGLVTAA the figure was 2.43; with EQIAERKRKMVSWEASALGLVTAA, 2.77; with EQIAERKRKMVSWEASWLGLVTAA, 1.76.
To EQIAERKRKMVSWEASKLGLVTAA belongs 3.54; to EQIAERKRKMVSVEASSLGLVTAA, 4.
With EQIAERKRKMVSGEASSLGLVTAA the figure was 4.82.
Take EQIAERKRKMVSPEASSLGLVTAA: the protein stability index stood at 4.38.
With EQIAERKRKMVSHEASSLGLVTAA the figure was 3.97; with EQIAERKRKMVSTEASSLGLVTAA, 3.77.
With EQIAERKRKMVSQEASSLGLVTAA the figure was 4.56; with EQIAERKRKMVSYEASSLGLVTAA, 3.29; with EQIAERKRKMVSEEASSLGLVTAA, 4.77.
To EQIAERKRKMVSNEASSLGLVTAA belongs 4.02; to EQIAERKRKMVSMEASSLGLVTAA, 3.07.
For EQIAERKRKMVSAEASSLGLVTAA, the protein stability index came to 4.19.
On to EQIAERKRKMVSDEASSLGLVTAA, for which the protein stability index was 4.67.
To EQIAERKRKMVSSEASSLGLVTAA belongs 4.33.
For the variant EQIAERKRKMVSLEASSLGLVTAA, the protein stability index was 3.86.
To EQIAERKRKMVSKEASSLGLVTAA belongs 3.85; to EQIAERKRKMVSWEASSLGLTTAA, 3.62; to EQIAERKRKMVSWEASSLGLETAA, 2.73.
With EQIAERKRKMVSWEASSLGLCTAA the figure was 3.05.
For EQIAERKRKMVSWEASSLGLSTAA, the protein stability index was found to be 3.68.
With EQIAERKRKMVSWEASSLGLPTAA the figure was 2.44.
Turning to EQIAERKRKMVSWEASSLGLQTAA, the protein stability index amounted to 3.22.
To EQIAERKRKMVSWEASSLGLLTAA belongs 2.76; to EQIAERKRKMVSWEASSLGLMTAA, 3.32; to EQIAERKRKMVSWEASSLGLFTAA, 2.38.
Take EQIAERKRKMVSWEASSLGLITAA: the protein stability index is 3.15.
To EQIAERKRKMVSWEASSLGLATAA belongs 3.23; to EQIAERKRKMVSWEASSLGLHTAA, 2.82; to EQIAERKRKMVSWEASSLGLRTAA, 2.96.
To EQIAERKRKMVSWEASSLGLNTAA belongs 3.22.
With EQIAERKRKMVSWEASSLGLGTAA the figure was 3.4; with EQIAERKRKMVSWEASSLGLWTAA, 2.86; with EQIAERKRKMVSWEASSLGLDTAA, 3.55.
Consider EQIAERKRKMVSWDASSLGLVTAA, for which the protein stability index amounted to 2.07.
To EQIAERKRKMVSWGASSLGLVTAA belongs 2.2; to EQIAERKRKMVSWSASSLGLVTAA, 2.47; to EQIAERKRKMVSWYASSLGLVTAA, 2.52.
In the case of EQIAERKRKMVSWPASSLGLVTAA, the protein stability index turned out to be 2.44.
As for EQIAERKRKMVSWMASSLGLVTAA, the protein stability index stood at 2.24.
